# Experimental data published in US20200199241A1 (Chugai, published 2020).
# Numbering of substitutions follows the chain as printed. Names and notes keep the numbering of the source.
# B1: IgG1-F413 (antibody)
# heavy: QVQLQESGPGLVKPSETLSLTCAVSGHSISHDHAWSWVRQPPGEGLEWIGFISYSGITNYNPSLQGRVTISRDNSKNTLYLQMNSLRAEDTAVYYCARSLARTTAMDYWGEGTLVTVSSASTKGPSVFPLAPSSKSTSGGTAALGCLVKDYFPEPVTVSWNSGALTSGVHTFPAVLQSSGLYSLSSVVTVPSSSLGTQTYICNVNHKPSNTKVDKKVEPKSCDKTHTCPPCPAPELLGGPSVFLFPPKPKDTLMISRTVEVTCVVVDVSHEDPEVKFNWYVDGVEVHNAKTKPREEQYNSTYRVVSVLPVLHQDWLNGKEYKCKVSNKALPAPIEKTISKAKGQPREPQVYTLPPSRDELTKNQVSLTCLVKGFYPSDIAVEWESNGQPENNYKTTPPVLDSDGSFFLYSKLTVDKSRWQQGNVFSCSVLHEALHYHYTQKSLSLSP
# light: not shown
# notes: EU numbering; copies: 2 + 2
# B2: IgG1-F415 (antibody)
# heavy: B1 heavy with N288E, P309A
# light: not shown
# notes: EU numbering; copies: 2 + 2
# B3: IgG1-F416 (antibody)
# heavy: B1 heavy with P309A, P389E
# light: not shown
# notes: EU numbering; copies: 2 + 2
# B4: IgG1-F418 (antibody)
# heavy: B1 heavy with S241K, M254Y, V259P, N327G, L430Y
# light: not shown
# notes: EU numbering; copies: 2 + 2
# B5: IgG1-F420 (antibody)
# heavy: B1 heavy with M254Y, V259P, P309A, Q313H, P389E, L430M
# light: not shown
# notes: EU numbering; copies: 2 + 2
# B6: IgG1-F422 (antibody)
# heavy: B1 heavy with M254Y, V259P, P309A, Q313H, E384A, L430M
# light: not shown
# notes: EU numbering; copies: 2 + 2
# B7: IgG1-F423 (antibody)
# heavy: B1 heavy with M254Y, V259P, P309W, Q313H, L430M
# light: not shown
# notes: EU numbering; copies: 2 + 2
# B8: IgG1-F424 (antibody)
# heavy: B1 heavy with S241K, V259A, P309T, V310P
# light: not shown
# notes: copies: 2 + 2
# B9: IgG1-F425 (antibody)
# heavy: B1 heavy with V259A, P309T, V310P, L311E
# light: not shown
# notes: EU numbering; copies: 2 + 2
# B10: IgG1-F426 (antibody)
# heavy: B1 heavy with P309Q, L430M
# light: not shown
# notes: EU numbering; copies: 2 + 2
# B11: IgG1-F427 (antibody)
# heavy: B1 heavy with M254Y, P309Q, L430V
# light: not shown
# notes: EU numbering; copies: 2 + 2
# B12: IgG1-F428 (antibody)
# heavy: B1 heavy with M254Y, P309Q
# light: not shown
# notes: EU numbering; copies: 2 + 2
# B13: IgG1-F429 (antibody)
# heavy: B1 heavy with M254Y, P309Q, L430M
# light: not shown
# notes: EU numbering; copies: 2 + 2
# B14: IgG1-F430 (antibody)
# heavy: B1 heavy with M254Y, P309Q, L430Y
# light: not shown
# notes: EU numbering; copies: 2 + 2
# B15: IgG1-F431 (antibody)
# heavy: B1 heavy with M254Y, P309Q, L430F
# light: not shown
# notes: EU numbering; copies: 2 + 2
# B16: IgG1-F432 (antibody)
# heavy: B1 heavy with P309Q, Q313A, N327G, L430V
# light: not shown
# notes: EU numbering; copies: 2 + 2
# B17: IgG1-F433 (antibody)
# heavy: B1 heavy with P309Q, Q313A, N327G, L430M
# light: not shown
# notes: EU numbering; copies: 2 + 2
# B18: IgG1-F435 (antibody)
# heavy: B1 heavy with P309Q, Q313A, N327G, L430F
# light: not shown
# notes: EU numbering; copies: 2 + 2
# B19: IgG1-F436 (antibody)
# heavy: B1 heavy with V259A, P309Q, L430V
# light: not shown
# notes: EU numbering; copies: 2 + 2
# B20: IgG1-F437 (antibody)
# heavy: B1 heavy with V259A, P309Q, L430M
# light: not shown
# notes: EU numbering; copies: 2 + 2
# B21: IgG1-F438 (antibody)
# heavy: B1 heavy with V259A, P309Q, L430Y
# light: not shown
# notes: EU numbering; copies: 2 + 2
# B22: IgG1-F439 (antibody)
# heavy: B1 heavy with V259A, P309Q, L430F
# light: not shown
# notes: EU numbering; copies: 2 + 2
# B23: IgG1-F440 (antibody)
# heavy: B1 heavy with N288E, P309Q, Q313A, N327G
# light: not shown
# notes: EU numbering; copies: 2 + 2
# B24: IgG1-F441 (antibody)
# heavy: B1 heavy with V259A, P309T, Q313A
# light: not shown
# notes: EU numbering; copies: 2 + 2
# B25: IgG1-F442 (antibody)
# heavy: B1 heavy with V259A, P309T, Q313H
# light: not shown
# notes: EU numbering; copies: 2 + 2
# B26: IgG1-F443 (antibody)
# heavy: B1 heavy with V259A, P309Q, Q313A
# light: not shown
# notes: EU numbering; copies: 2 + 2
# B27: IgG1-F444 (antibody)
# heavy: B1 heavy with V259A, P309A, Q313A
# light: not shown
# notes: EU numbering; copies: 2 + 2
# B28: IgG1-F446 (antibody)
# heavy: B1 heavy with V259A, P309A, Q313H
# light: not shown
# notes: EU numbering; copies: 2 + 2
# B29: IgG1-F447 (antibody)
# heavy: B1 heavy with V259A, N288E, P309Q
# light: not shown
# notes: EU numbering; copies: 2 + 2
# B30: IgG1-F448 (antibody)
# heavy: B1 heavy with V259A, N288E, P309A
# light: not shown
# notes: EU numbering; copies: 2 + 2
# B31: IgG1-F449 (antibody)
# heavy: B1 heavy with S241K, M254Y, V259P, D272F, N327G, L430Y
# light: not shown
# notes: EU numbering; copies: 2 + 2
# B32: IgG1-F451 (antibody)
# heavy: B1 heavy with V259S, P309A
# light: not shown
# notes: EU numbering; copies: 2 + 2
# B33: IgG1-F452 (antibody)
# heavy: B1 heavy with V259M, P309A
# light: not shown
# notes: EU numbering; copies: 2 + 2
# B34: IgG1-F453 (antibody)
# heavy: B1 heavy with V259N, P309A
# light: not shown
# notes: EU numbering; copies: 2 + 2
# B35: IgG1-F454 (antibody)
# heavy: B1 heavy with V259I, P309A
# light: not shown
# notes: EU numbering; copies: 2 + 2
# B36: IgG1-F455 (antibody)
# heavy: B1 heavy with P309Q, L430Y
# light: not shown
# notes: EU numbering; copies: 2 + 2
# B37: IgG1-F456 (antibody)
# heavy: B1 heavy with P309Q, L430F
# light: not shown
# notes: EU numbering; copies: 2 + 2
# B38: IgG1-F457 (antibody)
# heavy: B1 heavy with S241K, P309T, V310P
# light: not shown
# notes: EU numbering; copies: 2 + 2
# B39: IgG1-F458 (antibody)
# heavy: B1 heavy with P309Q, V310P, N327G
# light: not shown
# notes: EU numbering; copies: 2 + 2
# B40: IgG1-F459 (antibody)
# heavy: B1 heavy with P309Q, V310P, Q313A, N327G
# light: not shown
# notes: EU numbering; copies: 2 + 2
# B41: IgG1-F460 (antibody)
# heavy: B1 heavy with P309A, V310P, N327G
# light: not shown
# notes: EU numbering; copies: 2 + 2
# B42: IgG1-F463 (antibody)
# heavy: B1 heavy with V259A, P309A, V310P
# light: not shown
# notes: EU numbering; copies: 2 + 2
# B43: IgG1-F464 (antibody)
# heavy: B1 heavy with V259A, P309Q, V310P
# light: not shown
# notes: EU numbering; copies: 2 + 2
# B44: IgG1-F465 (antibody)
# heavy: B1 heavy with N288E, P309Q, N327G
# light: not shown
# notes: EU numbering; copies: 2 + 2
# B45: IgG1-F466 (antibody)
# heavy: B1 heavy with T258E, P309T, L430M
# light: not shown
# notes: EU numbering; copies: 2 + 2
# B46: IgG1-F467 (antibody)
# heavy: B1 heavy with T258E, V259T, P309T, L430M
# light: not shown
# notes: EU numbering; copies: 2 + 2
# B47: IgG1-F468 (antibody)
# heavy: B1 heavy with S241K, V259T, P309T, V310P
# light: not shown
# notes: EU numbering; copies: 2 + 2
# B48: IgG1-F469 (antibody)
# heavy: B1 heavy with V259T, P309T, V310P, N327G
# light: not shown
# notes: EU numbering; 'N3250' read as N325G; copies: 2 + 2
# B49: IgG1-F470 (antibody)
# heavy: B1 heavy with T258E, V259T, P309T, V310P, N327G
# light: not shown
# notes: EU numbering; copies: 2 + 2
# B50: IgG1-F471 (antibody)
# heavy: B1 heavy with V259T, P309T, V310P, N327G, E384A
# light: not shown
# notes: EU numbering; copies: 2 + 2
# B51: IgG1-F472 (antibody)
# heavy: B1 heavy with V259T, P309T, V310P, N327G, P389E
# light: not shown
# notes: EU numbering; copies: 2 + 2
# B52: IgG1-F473 (antibody)
# heavy: B1 heavy with V259T, P309T, V310P, L311P, N327G
# light: not shown
# notes: EU numbering; copies: 2 + 2
# B53: IgG1-F474 (antibody)
# heavy: B1 heavy with V259T, P309T, V310P, L311R, N327G
# light: not shown
# notes: EU numbering; copies: 2 + 2
# B54: IgG1-F475 (antibody)
# heavy: B1 heavy with T258E, P309Q
# light: not shown
# notes: EU numbering; copies: 2 + 2
# B55: IgG1-F476 (antibody)
# heavy: B1 heavy with P309Q, E384A
# light: not shown
# notes: EU numbering; copies: 2 + 2
# B56: IgG1-F477 (antibody)
# heavy: B1 heavy with P309Q, P389E
# light: not shown
# notes: EU numbering; copies: 2 + 2
# B57: IgG1-F480 (antibody)
# heavy: B1 heavy with V259L, P309T, V310P, L430M
# light: not shown
# notes: EU numbering; copies: 2 + 2
# B58: IgG1-F481 (antibody)
# heavy: B1 heavy with V259T, P309Q, L430M
# light: not shown
# notes: EU numbering; copies: 2 + 2
# B59: IgG1-F482 (antibody)
# heavy: B1 heavy with P309Q, N327G, L430M
# light: not shown
# notes: EU numbering; copies: 2 + 2
# B60: IgG1-F483 (antibody)
# heavy: B1 heavy with P309Q, Q313A, L430M
# light: not shown
# notes: EU numbering; copies: 2 + 2
# Target: T1, human FcRn (soluble human FcRn complexed with β2-microglobulin) (human, UniProt P61769 21-119, limits assumed)
# T1 construct: also called hFcRn
# Assay: SPR, pH 7.0;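 further: antibodies captured on a Protein L sensor chip with human FcRn injected as analyte, KD calculated from fitted association and dissociation rate constants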
row,Kd [nM],Binder
1,120,B1
2,56,B2
3,94,B3
4,620,B4
5,150,B5
6,180,B6
7,84,B7
8,94,B8
9,80,B9
10,84,B10
11,110,B11
12,80,B12
13,37,B13
14,81,B14
15,65,B15
16,920,B16
17,60,B17
18,25,B18
19,250,B19
20,57,B20

row,Kd [nM],Binder
1,36,B21
2,40,B22
3,15,B23
4,180,B24
5,200,B25
6,55,B26
7,140,B27
8,110,B28
9,14,B29
10,53,B30
11,570,B31
12,100,B32
13,140,B33
14,78,B34
15,96,B35
16,27,B36
17,34,B37
18,40,B38
19,15,B39
20,13,B40

row,Kd [nM],Binder
1,47,B41
2,130,B42
3,55,B43
4,21,B44
5,350,B45
6,570,B46
7,57,B47
8,56,B48
9,54,B49
10,66,B50
11,54,B51
12,450,B52
13,350,B53
14,43,B54
15,55,B55
16,43,B56
17,39,B57
18,56,B58
19,70,B59
20,57,B60
